Experiment [1] concerns the target T1, human CD123 expressed on cells (human, UniProt P26951 19-378). As to the kind of experiment: cell-based or functional assay.
A further experiment deals with T2, BSA (bovine, UniProt P02769).
T2 construct: also called bovine serum albumin, negative control coating
Put plainly: ELISA, wells coated with 1% BSA (panel BSA), HRP anti-VHH detection. An excerpt: FIG. 1: ELISA showing binding of all different bispecific VHHs to CD123, the Vγ9Vδ2 (GDT) TCR and BSA (as negative control). OD values are depicted; values are the mean of duplicate measurements; error bars indicate standard errors of the mean. A mono-valent anti-Vδ2 VHH was used as control for the TCR staining (“TCR control”) and a commercially available anti-CD123 antibody (“anti-CD123”) was used as control for the CD123 antigen coatings. “No AB” indicates a negative control without primary antibody.
Recombinant, purified CD123 antigen (extra-cellular domain; Sino Biological), or an Fc-fusion of the CD123 antigen (Bio-Techne/R&D Systems) was coated to the wells of an ELISA plate (Greiner) in PBS at a concentration of 2 μg/ml. As a negative control, wells were coated with 1% (w/v) BSA. An in-house designed, produced and purified recombinant form of the extra-cellular domains of the human Vγ9 and Vδ2 TCR chains fused to a human Fc was also coated as antigen at 2 μg/ml. After coating and blocking of the wells with 2% (w/v) BSA, bispecific VHH proteins were tested for binding at a saturating concentration of 50 nM and bound VHH was detected using an HRP-labeled anti-VHH antibody (Genscript) and staining using 3,3′,5,5′-tetramethylbenzidine (TMB)/H2O2.

Experiment [2] concerns the target T3, human CD131 (common β chain of the IL3 receptor) expressed on 293F cells (human, UniProt P32927 17-897).
T3 sequence: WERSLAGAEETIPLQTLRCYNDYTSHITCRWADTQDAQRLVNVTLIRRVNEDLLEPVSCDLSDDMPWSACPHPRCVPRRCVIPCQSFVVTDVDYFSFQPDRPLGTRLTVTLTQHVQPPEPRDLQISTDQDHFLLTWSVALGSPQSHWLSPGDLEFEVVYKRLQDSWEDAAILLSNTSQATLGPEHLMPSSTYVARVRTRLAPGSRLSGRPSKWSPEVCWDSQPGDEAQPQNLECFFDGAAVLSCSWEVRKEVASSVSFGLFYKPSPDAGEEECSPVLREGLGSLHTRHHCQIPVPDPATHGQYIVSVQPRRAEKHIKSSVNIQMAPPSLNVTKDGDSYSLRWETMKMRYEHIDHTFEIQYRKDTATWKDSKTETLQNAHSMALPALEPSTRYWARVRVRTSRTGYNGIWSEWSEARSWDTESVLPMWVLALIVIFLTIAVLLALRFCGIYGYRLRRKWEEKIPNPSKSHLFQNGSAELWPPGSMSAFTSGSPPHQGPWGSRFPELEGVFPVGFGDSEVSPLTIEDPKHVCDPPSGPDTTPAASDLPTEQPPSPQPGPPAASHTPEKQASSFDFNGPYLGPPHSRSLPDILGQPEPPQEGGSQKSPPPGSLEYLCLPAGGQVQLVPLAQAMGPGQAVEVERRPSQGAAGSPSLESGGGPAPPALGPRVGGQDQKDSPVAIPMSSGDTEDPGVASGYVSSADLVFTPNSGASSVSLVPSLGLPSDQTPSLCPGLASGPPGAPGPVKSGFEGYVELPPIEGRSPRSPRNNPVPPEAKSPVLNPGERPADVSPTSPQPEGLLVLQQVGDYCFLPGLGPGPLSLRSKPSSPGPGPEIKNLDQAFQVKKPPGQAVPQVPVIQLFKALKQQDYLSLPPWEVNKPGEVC
Put plainly: flow cytometry on 293F cells transiently expressing CD131, AF647-labeled anti-VHH detection. As to the method:
Expression constructs for human CD123 and for the common β chain of the receptor (CD131) were purchased from Invivogen. Plasmids were transformed to chemically competent DH5α bacteria and a single colony growing on selective medium was used to inoculate a 50 ml culture to amplify both constructs. […] Either plasmid alone, or a mix of the two plasmids was used for transfection. As negative control, untransfected cells were also used for flow cytometry. A day after transfection, cells were used to test the binding of the bispecific VHH using staining in FACS. Briefly, binding of a saturating concentration of 100 nM bispecific VHH to transfected cells was detected with an AF647-labeled anti-VHH (Genscript) antibody and staining was visualized using a FACS Celesta (Becton and Dickinson).
Background: In flow cytometry, cells or beads pass a laser one at a time.

For experiment [3], the target named is T1, human CD123 expressed on cells. As to the kind of experiment: flow cytometry on CD123 expressing C1R-CD1d cells (cell line used for immunization).
Experiment [4] addresses T4, Recombinant, purified CD123 antigen (extra-cellular domain; Sino Biological) (human, UniProt P26951 19-305).
T4 construct: Bought; also called recombinant human CD123
T4 sequence: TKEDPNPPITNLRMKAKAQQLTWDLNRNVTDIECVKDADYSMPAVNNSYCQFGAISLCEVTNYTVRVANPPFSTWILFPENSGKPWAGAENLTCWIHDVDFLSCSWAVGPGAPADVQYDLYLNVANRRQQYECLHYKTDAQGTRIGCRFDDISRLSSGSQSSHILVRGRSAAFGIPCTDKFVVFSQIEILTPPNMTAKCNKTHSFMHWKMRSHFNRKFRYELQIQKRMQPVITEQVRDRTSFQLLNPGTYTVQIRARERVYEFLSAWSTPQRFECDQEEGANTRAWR
As to the kind of experiment: phage ELISA on recombinant captured CD123 antigen. (In general: ELISA stands for enzyme-linked immunosorbent assay.)

The target in experiment [5] is T5, recombinant purified CD123-Fc fusion protein (Bio-Techne/R&D Systems) (human, UniProt P26951 19-305).
T5 construct: Bought; also called Fc-fusion of the CD123 antigen; recombinant CD123
T5 sequence: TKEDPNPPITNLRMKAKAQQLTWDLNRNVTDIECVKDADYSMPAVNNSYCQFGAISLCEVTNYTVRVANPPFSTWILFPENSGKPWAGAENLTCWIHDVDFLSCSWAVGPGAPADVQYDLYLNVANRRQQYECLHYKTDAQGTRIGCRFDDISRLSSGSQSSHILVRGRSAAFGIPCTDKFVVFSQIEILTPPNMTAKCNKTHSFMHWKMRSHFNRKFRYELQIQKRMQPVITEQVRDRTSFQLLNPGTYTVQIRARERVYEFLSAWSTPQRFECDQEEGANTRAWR
Put plainly: BLI, CD123-Fc on anti-human IgG Fc capture sensors; *low binding (>20 nM), one measurement only. As to the method:
(§1) To determine the kinetics of binding of humanized 1D2-5C8var1 variants to CD123, recombinant purified CD123-Fc fusion protein (Bio-Techne/R&D Systems) was loaded to a density of 1 nm onto anti-human IgG Fc Capture sensors (using a concentration of 5 μg/ml) for an Octet Red96e (Sartorius) instrument. Different sensors were then dipped in different concentrations of humanized 1D2-5C8var1 variants, starting at 50 nM and two-fold dilutions thereof; dilutions were made in 10× kinetic buffer (10×KB) provided by the supplier. From the obtained sensorgrams, the kinetic association- and dissociation rate constants were determined by curve fitting. The association- and dissociation rate constants, when fitting was possible, were used to calculate the affinity of the humanized 1D2-5C8var1 variants for binding to CD123. […] For reference, the non-humanized (parental) 1D2 was included in these experiments.
On the technique in general: Biolayer interferometry detects binding as a change in optical thickness at a sensor tip.

In experiment [6] the target is T5, recombinant purified CD123-Fc fusion …. Put plainly: BLI, CD123-Fc on anti-human IgG Fc capture sensors; SD 7.5. As to the method:
as §1

Consider nine molecules from patent publication US20240141071A1 (LAVA THERAPEUTICS N V, published 2024).

T2 sequence (P02769 25-607 limits assumed): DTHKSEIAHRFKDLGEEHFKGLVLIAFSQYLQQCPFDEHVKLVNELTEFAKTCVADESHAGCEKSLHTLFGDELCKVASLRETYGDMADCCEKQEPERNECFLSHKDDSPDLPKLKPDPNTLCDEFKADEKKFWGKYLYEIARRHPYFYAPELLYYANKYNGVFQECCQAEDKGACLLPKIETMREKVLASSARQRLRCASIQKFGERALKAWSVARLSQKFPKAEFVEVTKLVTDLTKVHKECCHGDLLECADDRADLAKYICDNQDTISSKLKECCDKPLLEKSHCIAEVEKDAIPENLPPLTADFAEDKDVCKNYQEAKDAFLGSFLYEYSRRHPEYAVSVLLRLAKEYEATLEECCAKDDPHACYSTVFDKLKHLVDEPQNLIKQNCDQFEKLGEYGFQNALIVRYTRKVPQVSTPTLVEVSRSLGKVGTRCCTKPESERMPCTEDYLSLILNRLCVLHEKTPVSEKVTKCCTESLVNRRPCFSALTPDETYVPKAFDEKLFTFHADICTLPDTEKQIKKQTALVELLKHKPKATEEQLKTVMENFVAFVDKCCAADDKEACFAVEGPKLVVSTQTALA

B1: 1A3-5C8var1 bispecific VHH (bispecific antibody)
chain: EVQLVESGGGLVQAGGSLRLSCAASGRAINTYAMAWFRQAPGKERDFVATISYSGGTTDYAGSVKGRFTISRDNAENTVYLQMNSLKPEDTAVYYCAARDRYNPLARNYNYWGQGTQVTVSSGGGGSEVQLLESGGGSVQPGGSLRLSCAASGRPFSNYAMSWFRQAPGKEREFVSAISWSGGSTSYADSVKGRFTISRDNSKNTLYLQMNSLRAEDTAVYYCAAQFSGADYGFGRLGIRGYEYDYWGQGTQVTVSSAAAEPEA
notes: Same format as 1D2-5C8var1
With B1, the “EC50 of THP-1 target cell lysis by Vγ9Vδ2 T cells” value in experiment [1] is approximately 0.05 nM. Further, the binding result with BSA is listed as “no binding (tested: 50 nM (single concentration))”; in experiment [2], “no binding (tested: 100 nM (single concentration))”.

B2: 1D2-5C8var1(Y105F)-Fc (bispecific antibody, human IgG1, V domains shown)
V domain 1: EVQLVESGGGLVQAGGSLRLSCAASGRTASSYVMGWFRQAPGKEREFVAVINWNGDSTYYTDSVKGRFAISRDNAKNTVYLQMNSLKPEDTAVYYCAADTRREWYRDGYWGPPARYEYDYRGQGTQVTVSS
V domain 2: EVQLLESGGGSVQPGGSLRLSCAASGRPFSNYAMSWFRQAPGKEREFVSAISWSGGSTSYADSVKGRFTISRDNSKNTLYLQMNSLRAEDTAVYYCAAQFSGADFGFGRLGIRGYEYDYWGQGTQVTVSS
Consider B2, for which, in experiment [1], the “EC50 of THP-1 lysis, donor nr. 2” value worked out at 0.001 nM; the “EC50 of THP-1 target cell lysis by Vγ9Vδ2 T cells, 24 h” value was 0.001 to 0.003 nM; the “EC50 of THP-1 target cell lysis in THP-1/pDC/Vγ9Vδ2 T cell co-culture” value is approximately 1 pM; the “EC50 of pDC lysis relative to THP-1 cell lysis” value was approximately 10 fold. Also, the “EC50 of pDC lysis, donor nr. 2” value in experiment [1] came out at 11 pM.

B3: anti-CD123 VHH 1D2 (VHH)
VHH: EVQLVESGGGLVQAGGSLRLSCAASGRTASSYVMGWFRQAPGKEREFVAVINWNGDSTYYTDSVKGRFAISRDNAKNTVYLQMNSLKPEDTAVYYCAADTRREWYRDGYWGPPARYEYDYRGQGTQVTVSS
notes: also called 1D2 VHH; lead anti-CD123 antibody
In the case of B3, the binding result in experiment [3] and in experiment [4] was “binds” throughout.

B4: anti-CD123 VHH 1A3 (VHH)
VHH: EVQLVESGGGLVQAGGSLRLSCAASGRAINTYAMAWFRQAPGKERDFVATISYSGGTTDYAGSVKGRFTISRDNAENTVYLQMNSLKPEDTAVYYCAARDRYNPLARNYNYWGQGTQVTVSS
With B4, the binding result in experiment [3] and in experiment [4] was “binds” in each case.

B5: humanized 1D2-5C8var1 variant with 1D2 var2 (SEQ ID NO:26) (bispecific antibody)
chain: EVQLVESGGGLVQPGGSLRLSCAASGRTASSYVMGWVRQAPGKEREWVSVINWNGDSTYYADSVKGRFTISRDNSKNTLYLQMNSLRAEDTAVYYCAADTRREWYRDGYWGPPARYEYDYRGQGTLVTVSSGGGGSEVQLLESGGGSVQPGGSLRLSCAASGRPFSNYAMSWFRQAPGKEREFVSAISWSGGSTSYADSVKGRFTISRDNSKNTLYLQMNSLRAEDTAVYYCAAQFSGADYGFGRLGIRGYEYDYWGQGTQVTVSSAAAEPEA
notes: See note of m19
Regarding B5, the Kd in experiment [5] is 24.5 nM.

B6: humanized 1D2-5C8var1 variant with 1D2 var8 (SEQ ID NO:32) (bispecific antibody)
chain: EVQLVESGGGLVQPGGSLRLSCAASGRTASSYVMSWFRQAPGKGLEWVAVINWNGDSTYYADSVKGRFTISRDNSKNTVYLQMNSLRAEDTAVYYCAADTRREWYRDGYWGPPARYEYDYRGQGTLVTVSSGGGGSEVQLLESGGGSVQPGGSLRLSCAASGRPFSNYAMSWFRQAPGKEREFVSAISWSGGSTSYADSVKGRFTISRDNSKNTLYLQMNSLRAEDTAVYYCAAQFSGADYGFGRLGIRGYEYDYWGQGTQVTVSSAAAEPEA
notes: See note of m19
Turning to B6, the Kd in experiment [5] stood at 44.1 nM.

B7: humanized 1D2-5C8var1 variant with 1D2 var10 (SEQ ID NO:34) (bispecific antibody)
chain: EVQLVESGGGLVQPGGSLRLSCAASGRTASSYVMGWFRQAPGKEREFVSVINWNGDSTYYADSVKGRFTISRDNSKNTLYLQMNSLRAEDTAVYYCAADTRREWYRDGFWGPPARYEYDYRGQGTQVTVSSGGGGSEVQLLESGGGSVQPGGSLRLSCAASGRPFSNYAMSWFRQAPGKEREFVSAISWSGGSTSYADSVKGRFTISRDNSKNTLYLQMNSLRAEDTAVYYCAAQFSGADYGFGRLGIRGYEYDYWGQGTQVTVSSAAAEPEA
notes: See note of m19
Regarding B7, the Kd in experiment [6] came out at 10.4 nM.

B8: humanized 1D2-5C8var1 variant with 1D2 var4 (SEQ ID NO:28) (bispecific antibody)
chain: EVQLVESGGGVVQPGGSLRLSCAASGRTASSYVMSWFRQAPGKEREWVAVINWNGDSTYYADSVKGRFTISRDNSKNTLYLQMNSLRAEDTAVYYCAADTRREWYRDGYWGPPARYEYDYRGQGTTVTVSSGGGGSEVQLLESGGGSVQPGGSLRLSCAASGRPFSNYAMSWFRQAPGKEREFVSAISWSGGSTSYADSVKGRFTISRDNSKNTLYLQMNSLRAEDTAVYYCAAQFSGADYGFGRLGIRGYEYDYWGQGTQVTVSSAAAEPEA
notes: See note of m19
Turning to B8, the Kd in experiment [6] is 20 nM.

B9: humanized 1D2-5C8var1 variant with 1D2 var6 (SEQ ID NO:30) (bispecific antibody)
chain: EVQLVESGGGLVQPGGSLRLSCAASGRTASSYVMGWVRQAPGKGLEWVSVINWNGDSTYYADSVKGRFTISRDNSKNTLYLQMNSLRAEDTAVYYCAADTRREWYRDGYWGPPARYEYDYRGQGTLVTVSSGGGGSEVQLLESGGGSVQPGGSLRLSCAASGRPFSNYAMSWFRQAPGKEREFVSAISWSGGSTSYADSVKGRFTISRDNSKNTLYLQMNSLRAEDTAVYYCAAQFSGADYGFGRLGIRGYEYDYWGQGTQVTVSSAAAEPEA
notes: See note of m19
Regarding B9, in experiment [5], the equilibrium dissociation constant (Kd) is 29.1 nM.

The term Kd denotes a measure of binding affinity in units of concentration.
